The chains are these.
T1: IL-10R1-Fc (UniProt Q13651 22-235, limits assumed)
T1 sequence (looked up): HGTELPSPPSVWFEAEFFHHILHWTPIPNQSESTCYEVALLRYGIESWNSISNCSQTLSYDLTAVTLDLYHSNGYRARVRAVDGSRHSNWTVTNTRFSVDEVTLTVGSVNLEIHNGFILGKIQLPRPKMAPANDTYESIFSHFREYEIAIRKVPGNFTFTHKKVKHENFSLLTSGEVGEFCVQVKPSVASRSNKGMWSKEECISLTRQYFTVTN

B1: IL-10 Glu142Cys-S48 (ligand, human, UniProt P22301 19-178, looked up)
chain: SPGQGTQSENSCTHFPGNLPNMLRDLRDAFSRVKTFFQMKDQLDNLLLKESLLEDFKGYLGCQALSEMIQFYLEEVMPQAENQDPDIKAHVNSLGENLKTLRLRLRRCHRFLPCENKSKAVEQVKNAFNKLQEKGIYKAMSCFDIFINYIEAYMTMKIRN
modifications: S48 on Cys 142
notes: mature
B2: IL-10 Ile69Cys-S48 (ligand, human, UniProt P22301 19-178, looked up)
chain: SPGQGTQSENSCTHFPGNLPNMLRDLRDAFSRVKTFFQMKDQLDNLLLKESLLEDFKGYLGCQALSEMCQFYLEEVMPQAENQDPDIKAHVNSLGENLKTLRLRLRRCHRFLPCENKSKAVEQVKNAFNKLQEKGIYKAMSEFDIFINYIEAYMTMKIRN
modifications: S48 on Cys 69
notes: mature
B3: IL-10 Leu23Cys-S48 (ligand, human, UniProt P22301 19-178, looked up)
chain: SPGQGTQSENSCTHFPGNLPNMCRDLRDAFSRVKTFFQMKDQLDNLLLKESLLEDFKGYLGCQALSEMIQFYLEEVMPQAENQDPDIKAHVNSLGENLKTLRLRLRRCHRFLPCENKSKAVEQVKNAFNKLQEKGIYKAMSEFDIFINYIEAYMTMKIRN
modifications: S48 on Cys 23
notes: mature
B4: IL-10 Leu26Cys-R4-6 (ligand, human, UniProt P22301 19-178, looked up)
chain: SPGQGTQSENSCTHFPGNLPNMLRDCRDAFSRVKTFFQMKDQLDNLLLKESLLEDFKGYLGCQALSEMIQFYLEEVMPQAENQDPDIKAHVNSLGENLKTLRLRLRRCHRFLPCENKSKAVEQVKNAFNKLQEKGIYKAMSEFDIFINYIEAYMTMKIRN
modifications: R4-6 on Cys 26
notes: mature
B5: IL-10 Gly135Cys-R4-1 (ligand, human, UniProt P22301 19-178, looked up)
chain: SPGQGTQSENSCTHFPGNLPNMLRDLRDAFSRVKTFFQMKDQLDNLLLKESLLEDFKGYLGCQALSEMIQFYLEEVMPQAENQDPDIKAHVNSLGENLKTLRLRLRRCHRFLPCENKSKAVEQVKNAFNKLQEKCIYKAMSEFDIFINYIEAYMTMKIRN
modifications: R4-1 on Cys 135
notes: mature
B6: IL-10 Ile158Cys-S48 (ligand, human, UniProt P22301 19-178, looked up)
chain: SPGQGTQSENSCTHFPGNLPNMLRDLRDAFSRVKTFFQMKDQLDNLLLKESLLEDFKGYLGCQALSEMIQFYLEEVMPQAENQDPDIKAHVNSLGENLKTLRLRLRRCHRFLPCENKSKAVEQVKNAFNKLQEKGIYKAMSEFDIFINYIEAYMTMKCRN
modifications: S48 on Cys 158
notes: mature
B7: IL-10 Gly17Cys-S48 (ligand, human, UniProt P22301 19-178, looked up)
chain: SPGQGTQSENSCTHFPCNLPNMLRDLRDAFSRVKTFFQMKDQLDNLLLKESLLEDFKGYLGCQALSEMIQFYLEEVMPQAENQDPDIKAHVNSLGENLKTLRLRLRRCHRFLPCENKSKAVEQVKNAFNKLQEKGIYKAMSEFDIFINYIEAYMTMKIRN
modifications: S48 on Cys 17
notes: mature
B8: IL-10 Glu151Cys-R4-12 (ligand, human, UniProt P22301 19-178, looked up)
chain: SPGQGTQSENSCTHFPGNLPNMLRDLRDAFSRVKTFFQMKDQLDNLLLKESLLEDFKGYLGCQALSEMIQFYLEEVMPQAENQDPDIKAHVNSLGENLKTLRLRLRRCHRFLPCENKSKAVEQVKNAFNKLQEKGIYKAMSEFDIFINYICAYMTMKIRN
modifications: R4-12 on Cys 151
notes: mature
B9: IL-10 Leu46Cys-S48 (ligand, human, UniProt P22301 19-178, looked up)
chain: SPGQGTQSENSCTHFPGNLPNMLRDLRDAFSRVKTFFQMKDQLDNCLLKESLLEDFKGYLGCQALSEMIQFYLEEVMPQAENQDPDIKAHVNSLGENLKTLRLRLRRCHRFLPCENKSKAVEQVKNAFNKLQEKGIYKAMSEFDIFINYIEAYMTMKIRN
modifications: S48 on Cys 46
notes: mature
B10: IL-10 Leu19Cys-S48 (ligand, human, UniProt P22301 19-178, looked up)
chain: SPGQGTQSENSCTHFPGNCPNMLRDLRDAFSRVKTFFQMKDQLDNLLLKESLLEDFKGYLGCQALSEMIQFYLEEVMPQAENQDPDIKAHVNSLGENLKTLRLRLRRCHRFLPCENKSKAVEQVKNAFNKLQEKGIYKAMSEFDIFINYIEAYMTMKIRN
modifications: S48 on Cys 19
notes: mature
B11: IL-10 Leu26Cys-S48 (ligand, human, UniProt P22301 19-178, looked up)
chain: SPGQGTQSENSCTHFPGNLPNMLRDCRDAFSRVKTFFQMKDQLDNLLLKESLLEDFKGYLGCQALSEMIQFYLEEVMPQAENQDPDIKAHVNSLGENLKTLRLRLRRCHRFLPCENKSKAVEQVKNAFNKLQEKGIYKAMSEFDIFINYIEAYMTMKIRN
modifications: S48 on Cys 26
notes: mature
B12: IL-10 Gly17Cys-R4-1 (ligand, human, UniProt P22301 19-178, looked up)
chain: SPGQGTQSENSCTHFPCNLPNMLRDLRDAFSRVKTFFQMKDQLDNLLLKESLLEDFKGYLGCQALSEMIQFYLEEVMPQAENQDPDIKAHVNSLGENLKTLRLRLRRCHRFLPCENKSKAVEQVKNAFNKLQEKGIYKAMSEFDIFINYIEAYMTMKIRN
modifications: R4-1 on Cys 17
notes: mature
B13: IL-10 Gly135Cys-S48 (ligand, human, UniProt P22301 19-178, looked up)
chain: SPGQGTQSENSCTHFPGNLPNMLRDLRDAFSRVKTFFQMKDQLDNLLLKESLLEDFKGYLGCQALSEMIQFYLEEVMPQAENQDPDIKAHVNSLGENLKTLRLRLRRCHRFLPCENKSKAVEQVKNAFNKLQEKCIYKAMSEFDIFINYIEAYMTMKIRN
modifications: S48 on Cys 135
notes: mature
B14: IL-10 Leu19Cys-R4-7 (ligand, human, UniProt P22301 19-178, looked up)
chain: SPGQGTQSENSCTHFPGNCPNMLRDLRDAFSRVKTFFQMKDQLDNLLLKESLLEDFKGYLGCQALSEMIQFYLEEVMPQAENQDPDIKAHVNSLGENLKTLRLRLRRCHRFLPCENKSKAVEQVKNAFNKLQEKGIYKAMSEFDIFINYIEAYMTMKIRN
modifications: R4-7 on Cys 19
notes: mature
B15: IL-10 Ile69Cys-R4-6 (ligand, human, UniProt P22301 19-178, looked up)
chain: SPGQGTQSENSCTHFPGNLPNMLRDLRDAFSRVKTFFQMKDQLDNLLLKESLLEDFKGYLGCQALSEMCQFYLEEVMPQAENQDPDIKAHVNSLGENLKTLRLRLRRCHRFLPCENKSKAVEQVKNAFNKLQEKGIYKAMSEFDIFINYIEAYMTMKIRN
modifications: R4-6 on Cys 69
notes: mature
B16: IL-10 Ile158Cys-R4-6 (ligand, human, UniProt P22301 19-178, looked up)
chain: SPGQGTQSENSCTHFPGNLPNMLRDLRDAFSRVKTFFQMKDQLDNLLLKESLLEDFKGYLGCQALSEMIQFYLEEVMPQAENQDPDIKAHVNSLGENLKTLRLRLRRCHRFLPCENKSKAVEQVKNAFNKLQEKGIYKAMSEFDIFINYIEAYMTMKCRN
modifications: R4-6 on Cys 158
notes: mature
B17: IL-10 Glu151Cys-S48 (ligand, human, UniProt P22301 19-178, looked up)
chain: SPGQGTQSENSCTHFPGNLPNMLRDLRDAFSRVKTFFQMKDQLDNLLLKESLLEDFKGYLGCQALSEMIQFYLEEVMPQAENQDPDIKAHVNSLGENLKTLRLRLRRCHRFLPCENKSKAVEQVKNAFNKLQEKGIYKAMSEFDIFINYICAYMTMKIRN
modifications: S48 on Cys 151
notes: mature
B18: IL-10 Leu23Cys-R4-6 (ligand, human, UniProt P22301 19-178, looked up)
chain: SPGQGTQSENSCTHFPGNLPNMCRDLRDAFSRVKTFFQMKDQLDNLLLKESLLEDFKGYLGCQALSEMIQFYLEEVMPQAENQDPDIKAHVNSLGENLKTLRLRLRRCHRFLPCENKSKAVEQVKNAFNKLQEKGIYKAMSEFDIFINYIEAYMTMKIRN
modifications: R4-6 on Cys 23
notes: mature
B19: IL-10 Leu46Cys-R4-6 (ligand, human, UniProt P22301 19-178, looked up)
chain: SPGQGTQSENSCTHFPGNLPNMLRDLRDAFSRVKTFFQMKDQLDNCLLKESLLEDFKGYLGCQALSEMIQFYLEEVMPQAENQDPDIKAHVNSLGENLKTLRLRLRRCHRFLPCENKSKAVEQVKNAFNKLQEKGIYKAMSEFDIFINYIEAYMTMKIRN
modifications: R4-6 on Cys 46
notes: mature

For this test, the target named is T1, IL-10R1-Fc. The test is described as follows: ELISA, IL-10R1-Fc coated.
On to B1, for which the “Decreased fold of binding to ligand after Conjugating with S48” value (“Decreased fold of binding to ligand” for short) amounted to 13 fold.

With B2, the “Decreased fold of binding to ligand” value was 3 fold.

Turning to B3, the “Decreased fold of binding to ligand” value worked out at 12 fold.

In the case of B4, the “Binding recovery (>60%)” value was determined as 93.4%.

For the molecule B5, the “Binding recovery (>60%)” value came out at 99.5%.

For B6, the “Decreased fold of binding to ligand” value was 9 fold.

In the case of B7, the “Decreased fold of binding to ligand” value is 15 fold.

As to B8, the “Binding recovery (>60%)” value stood at 82.5%.

As to B9, the “Decreased fold of binding to ligand” value amounted to 22 fold.

Turning to B10, the “Decreased fold of binding to ligand” value was 8 fold.

On to B11, for which the “Decreased fold of binding to ligand” value worked out at 3 fold.

B12: the “Binding recovery (>60%)” value is 90.2%.

With B13, the “Decreased fold of binding to ligand” value amounted to 3 fold.

As for B14, the “Binding recovery (>60%)” value is 95.3%.

Take B15: the “Binding recovery (>60%)” value was 97.3%.

With B16, the “Binding recovery (>60%)” value stood at 81.7%.

For B17, the “Decreased fold of binding to ligand” value stood at 13 fold.

Consider B18, for which the “Binding recovery (>60%)” value was 101%.

As for B19, the “Binding recovery (>60%)” value came to 89.6%.

(Values after patent publication US20230158141A1 (YAFEI SHANGHAI BIOLOG MEDICINE SCIENCE AND TECHNOLOGY, published 2023).)
